# Measurements taken from PMC7861197 (Molecular pharmaceutics, 2020).
# Assays:
# [1] = target: T1, scavenger receptor A (SR-A) (Mus musculus, UniProt P30204); assay: Scavenger receptor A competitive inhibition studies in RAW 264.7 cells; assay type: cell-based, murine; settings: RAW 264.7, 3 h co-treatment, 200 μg/mL poly I or poly C, PLS-488 4.22 ng/mL to […] (Figure 2A)
# T1 sequence (P30204 1-458): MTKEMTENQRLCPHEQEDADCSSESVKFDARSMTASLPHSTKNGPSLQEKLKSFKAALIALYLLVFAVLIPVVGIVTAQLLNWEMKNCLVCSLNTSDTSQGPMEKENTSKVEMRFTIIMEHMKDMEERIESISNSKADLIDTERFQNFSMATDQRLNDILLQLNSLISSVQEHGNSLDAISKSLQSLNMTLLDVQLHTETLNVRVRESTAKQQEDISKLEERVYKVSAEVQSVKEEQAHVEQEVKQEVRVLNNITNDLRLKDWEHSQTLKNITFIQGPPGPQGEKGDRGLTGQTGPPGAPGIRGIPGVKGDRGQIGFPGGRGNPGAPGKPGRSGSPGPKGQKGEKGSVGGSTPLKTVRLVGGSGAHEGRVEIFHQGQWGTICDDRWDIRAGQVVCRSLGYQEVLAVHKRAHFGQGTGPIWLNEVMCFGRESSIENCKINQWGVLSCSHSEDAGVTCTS
# [2] = Lymph node distribution of PLS-488 in mice, anti-Alexa488 immunohistochemistry; assay type: in vivo, C57BL/6 mice; settings: 6 h and 24 h
# [3] = test system: SR-A1 deficient RAW 264.7 derivative cell line (Clone 1/2); assay: Flow cytometry of PLS-488 uptake, SR-A1 deficient Clone 1/2; assay type: cell-based, murine; settings: SR-A1 deficient Clone 1/2, 24 h incubation
# [4] = test system: wild type Raw 264.7 cells; assay: Confocal microscopy of PLS-488 uptake, wild type RAW 264.7 cells; assay type: cell-based, murine
# [5] = test system: wild-type RAW 264.7 cells; assay: Flow cytometry of PLS-488 uptake, wild-type RAW 264.7 cells; assay type: cell-based, murine; settings: wild-type RAW 264.7, 24 h incubation
# [6] = test system: SR-A1 knockout Raw 264.7 cells (clone 1/2); assay: Confocal microscopy of PLS-488 uptake, SR-A1 deficient RAW cells; assay type: cell-based, murine; settings: SR-A1 deficient RAW cell line
# [7] = FTC concentrations in rat tissues by LC-MS/MS; assay type: in vivo, Sprague Dawley rats; settings: for concentration at 4 h: male, Sprague Dawley, rat, iv
# [8] = Plasma pharmacokinetics of PLS-FTC vs FTC in rats
# [9] = In vitro drug release in human plasma with or without esterase inhibitor PMSF; settings: PMSF-treated vs untreated human plasma
# [10] = rat axillary lymph nodes, 4 h post dose
# human PBMCs = settings: 24 h incubation at 10 ug/mL FTC, normalized to soluble protein
# [11] = rats, 4 h post i.v. injection, 10 mg FTC equivalents/kg, mean ± SD, n=3
# [12] = FTC in plasma, rats, i.v. bolus 10 mg FTC equivalents/kg, mean ± SD (n=8)
# [13] = rats, i.v. bolus 10 mg FTC equivalents/kg
# [14] = male, Sprague Dawley, rat, plasma, iv, 10 mg/kg
compound,measurement,setting,value
poly(cytidylic acid) potassium salt [poly C],inhibition of PLS-488 binding to macrophages,[1],not with the control polymer poly C
AlexaFluor488-labelled poly(L-lysine succinylated) [PLS-488],accumulation in lymph nodes (IHC),[2]; intradermal injection into foot pads,robust accumulation of PLS-488 in regions of the draining (popliteal) and peripheral (axillary and inguinal) lymph nodes
same,accumulation in lymph nodes (IHC),[2]; intravenous tail vein injection,"early accumulation of PLS-488 into myeloid-rich regions of the deep mesenteric lymph nodes by 6 h, with later accumulation in peripheral lymph nodes"
same,uptake of PLS-488 by flow cytometry,[3],no uptake
same,PLS-488 uptake by confocal microscopy,"[4]; wild type Raw 264.7, 1 μg/mL, 0.5 h",uptake was observed at the earliest 0.5 h time point
same,PLS-488 fluorescence signal after 24 h treatment,"[4]; wild type vs SR-A1 deficient Raw cells, 1 μg/mL, 24 h",markedly greater in the wild type Raw 264.7 cells than the SR-A1 deficient Raw cells
same,uptake of PLS-488 by flow cytometry,[5],uniform uptake
same,PLS-488 uptake by confocal microscopy,[6],greatly reduced PLS-488 uptake
poly(L-lysine succinylated) FTC prodrug [PLS-FTC],FTC concentration in axillary lymph node,[7]; [11],811 ± 65 ng/g
same,FTC concentration in inguinal lymph node,[7]; [11],587 ± 56 ng/g
same,FTC concentration in liver,[7]; [11],"2,257 ± 143 ng/g"
same,FTC concentration in mesenteric lymph node,[7]; [11],850 ± 540 ng/g
same,FTC concentration in popliteal lymph node,[7]; [11],864 ± 330 ng/g
same,FTC concentration in spleen,[7]; [11],"1,788 ± 164 ng/g"
same,fold higher concentrations in lymphatic tissues compared to free FTC control,"[7]; rats, 4 h post injection, lymph nodes, liver, spleen",7 to 19 fold
same,FTC concentration in LN inguinal at 24 h,"[7]; rats, 24 h after i.v. bolus",below limit of quantitation
same,AUCall,[8]; [12],11100 ± 3281 ^* h*ng/mL
same,C0,[8]; [12],4901 ± 3621 ng/mL
same,Cl,[8]; [12],17.55 ± 10.3 mL/min/kg
same,Cmax,[8]; [12],3839 ± 1734 ng/mL
same,MRT,[8]; [12],3.64 ± 0.47 h
same,T1/2,[8]; [12],6.99 ± 2.62 h
same,Vss,[8]; [12],3.816 ± 2.254 L/kg
same,fold higher area under the concentration-time curve vs FTC control,[8]; [13],2 fold
same,fold higher mean residence time vs FTC control,[8]; [13],2 fold
same,fold lower concentration time zero vs FTC control,[8]; [13],2 fold
same,fold lower half-life vs FTC control,[8]; [13],2 fold
same,prolongation of release half-life in PMSF-treated plasma,[9],~ 2 fold
"Nc1nc(=O)n([C@@H]2CS[C@H](CO)O2)cc1F [FTC, Emtricitabine, reference compound]",concentration at 4 h,"[7]; axillary lymph node, 10 mg FTC equivalents/kg",109 ± 37 ng/g
same,concentration at 4 h,"[7]; inguinal lymph node, 10 mg FTC equivalents/kg",87 ± 51 ng/g
same,concentration at 4 h,"[7]; liver, 10 mg FTC equivalents/kg",119 ± 51 ng/g
same,concentration at 4 h,"[7]; popliteal lymph node, 10 mg FTC equivalents/kg",105 ± 64 ng/g
same,concentration at 4 h,"[7]; spleen, 10 mg FTC equivalents/kg",106 ± 44 ng/g
same,AUC,[8]; [14],6400 ± 1010 ng·h/mL
same,C0,[8]; [14],10600 ± 2950 ng/mL
same,Cmax,[8]; [14],5850 ± 853 ng/mL
same,MRT,[8]; [14],1.8 ± 0.32 h
same,Vd,[8]; [14],2.94 ± 1.09 L/kg
same,clearance,[8]; [14],26.7 mL/min/kg
same,half-life,[8]; [14],14.1 ± 5.17 h
same,FTC signal abundance (IR-MALDESI MSI),[10],18.5 ± 16.6 arbitrary units
same,frequency of detection,[10],2.9 ± 2.8 % of sampling locations with measurable drug
same,FTC concentration in PBMCs,human PBMCs,182 ± 18 ng/mg protein
